This note sets out measurements from US20150203577A1 (Chugai, published 2015).

The target of one assay is T1, mouse FcγRII (mouse, UniProt P08101 30-210).
T1 construct: also called mFcγRII; mFcgRII
T1 sequence: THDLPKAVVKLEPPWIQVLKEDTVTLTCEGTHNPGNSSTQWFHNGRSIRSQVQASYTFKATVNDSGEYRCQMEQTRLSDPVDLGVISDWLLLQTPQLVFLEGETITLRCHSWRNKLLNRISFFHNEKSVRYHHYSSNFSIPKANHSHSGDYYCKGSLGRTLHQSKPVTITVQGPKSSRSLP
Description: SPR Biacore 4000, KD ratio. The procedure: (§1) Each altered antibody was analyzed for its interaction with each Fcγ receptor prepared above using Biacore T100 (GE Healthcare Japan Corp.), Biacore T200 (GE Healthcare Japan Corp.), Biacore A100, or Biacore 4000. The running buffer used was HBS-EP+ (GE Healthcare Japan Corp.). The assay temperature was set to 25° C. The sensor chips used were chips prepared by immobilizing Protein L (ACTIGEN or BioVision) onto Series S Sensor Chip CM5 (GE Healthcare Japan Corp.) or Series S Sensor Chip CM4 (GE Healthcare Japan Corp.) by the amine coupling method.
(§2) In order to calculate the KD value of each altered antibody for FcγR, kinetic analysis was conducted according to the following method: first, the antibody of interest was captured onto any of these chips and allowed to interact with mFcγR diluted with a running buffer. For the obtained sensorgram, the assay results were globally fit into the 1:1 Langmuir binding model using Biacore Evaluation Software to calculate an association rate constant ka (L/mol/s) and a dissociation rate constant kd (1/s). From these values, the dissociation constant KD (mol/L) was calculated.

The next assay addresses T2, mouse FcγRIII (mouse, UniProt P08508 31-215).
T2 construct: also called mFcγRIII; mFcgRIII
T2 chain: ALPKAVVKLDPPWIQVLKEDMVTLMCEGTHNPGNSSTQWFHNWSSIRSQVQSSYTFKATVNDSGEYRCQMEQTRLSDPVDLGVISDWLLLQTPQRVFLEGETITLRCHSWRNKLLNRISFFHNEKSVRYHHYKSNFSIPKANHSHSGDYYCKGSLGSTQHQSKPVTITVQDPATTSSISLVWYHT
Description: SPR Biacore 4000, KD ratio. The procedure: as §1, §2

In assay [1] the target is T3, mouse FcγRII extracellular domain with C-terminal His tag (mouse, UniProt P08101 30-210).
T3 construct: Made on the basis of NCBI NP-034317.1; also called mFcγRII; mFcgRII
T3 sequence: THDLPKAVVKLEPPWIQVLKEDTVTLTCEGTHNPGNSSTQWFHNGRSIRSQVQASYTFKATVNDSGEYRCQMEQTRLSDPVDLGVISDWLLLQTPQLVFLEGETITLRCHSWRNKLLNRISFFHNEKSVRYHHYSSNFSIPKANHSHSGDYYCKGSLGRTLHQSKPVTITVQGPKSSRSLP
Description: SPR Biacore T200. As to the method:
as §1, §2

Assay [2] has as its target T4, mouse FcγRIII extracellular domain with C-terminal His tag (mouse, UniProt P08508 31-215).
T4 construct: Made on the basis of NCBI NP-034318.2; also called mFcγRIII; mFcgRIII
T4 chain: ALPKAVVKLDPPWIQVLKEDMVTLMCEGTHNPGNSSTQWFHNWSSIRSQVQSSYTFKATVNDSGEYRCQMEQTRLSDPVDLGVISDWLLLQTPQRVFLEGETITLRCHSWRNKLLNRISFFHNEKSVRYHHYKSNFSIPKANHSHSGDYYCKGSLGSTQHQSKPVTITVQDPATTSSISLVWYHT
Description: SPR Biacore T200. The procedure:
as §1, §2

B1: MB002 (antibody, mouse IgG1, kappa)
heavy: QVQLQESGPGLVKPSETLSLTCAVSGHSISHDHAWSWVRQPPGEGLEWIGFISYSGITNYNPSLQGRVTISRDNSKNTLYLQMNSLRAEDTAVYYCARSLARTTAMDYWGEGTLVTVSSAKTTPPSVYPLAPGSAAQTNSMVTLGCLVKGYFPEPVTVTWNSGSLSSGVHTFPAVLQSDLYTLSSSVTVPSSTWPSETVTCNVAHPASSTKVDKKIVPRDCGCKPCICDVPEVSSVFIFPPKPKDVLTITLTPKVTCVVVDISKDDPEVQFSWFVDDVEVHTAQTQPREEQFNSTFRSVSELPIMHQDWLNGKEFKCRVNSAAFPAPIEKTISKTKGRPKAPQVYTIPPPKEQMAKDKVSLTCMITDFFPEDITVEWQWNGQPAENYKNTQPIMDTDGSYFVYSKLNVQKSNWEAGNTFTCSVLHEGLHNHHTEKSLSHSPGK
light: not shown
notes: copies: 2 + 2
Turning to B1, the “relative mFcγRII-binding activity (mIgG1 = 1)” value with mouse FcγRII was found to be 2.72 fold. Further, in the assay with mouse FcγRIII, the “relative mFcγRIII-binding activity (mIgG1 = 1)” value was determined as 1.47 fold.

B2: H237-MB523/MRAL-k0 (antibody, mouse IgG1, kappa)
heavy: QVQLQESGPGLVKPSETLSLTCAVSGHSISHDHAWSWVRQPPGEGLEWIGFISYSGITNYNPSLQGRVTISRDNSKNTLYLQMNSLRAEDTAVYYCARSLARTTAMDYWGEGTLVTVSSAKTTPPSVYPLAPGSAAQTNSMVTLGCLVKGYFPEPVTVTWNSGSLSSGVHTFPAVLQSDLYTLSSSVTVPSSTWPSETVTCNVAHPASSTKVDKKIVPRDCGCKPCICIPAEVEWVFIFPPKPKDVLTITLTPKVTCVVVDISKDDPEVQFSWFVDDVEVHTAQTQPREEQFNSTFRSVSELPIMHQDWLNGKEFKCRVNSAAFPAPIEKTISKTKGRPKAPQVYTIPPPKEQMAKDKVSLTCMITDFFPEDITVEWQWNGQPAENYKNTQPIMDTDGSYFVYSKLNVQKSNWEAGNTFTCSVLHEGLHNHHTEKSLSHSPGK
light: not shown
notes: copies: 2 + 2
On to B2, for which the “relative mFcγRII-binding activity (mIgG1 = 1)” value in assay [1] is 0.5. Further, the “relative mFcγRIII-binding activity (mIgG1 = 1)” value in assay [2] came out at 0.1.

B3: MB016 (antibody, mouse IgG1, kappa)
heavy: QVQLQESGPGLVKPSETLSLTCAVSGHSISHDHAWSWVRQPPGEGLEWIGFISYSGITNYNPSLQGRVTISRDNSKNTLYLQMNSLRAEDTAVYYCARSLARTTAMDYWGEGTLVTVSSAKTTPPSVYPLAPGSAAQTNSMVTLGCLVKGYFPEPVTVTWNSGSLSSGVHTFPAVLQSDLYTLSSSVTVPSSTWPSETVTCNVAHPASSTKVDKKIVPRDCGCKPCICVVPEVSSVFIFPPKPKDVLTITLTPKVTCVVVDISKDDPEVQFSWFVDDVEVHTAQTQPREEQFNSTFRSVSELPIMHQDWLNGKEFKCRVNSAAFPAPIEKTISKTKGRPKAPQVYTIPPPKEQMAKDKVSLTCMITDFFPEDITVEWQWNGQPAENYKNTQPIMDTDGSYFVYSKLNVQKSNWEAGNTFTCSVLHEGLHNHHTEKSLSHSPGK
light: not shown
notes: copies: 2 + 2
For B3, the “relative mFcγRII-binding activity (mIgG1 = 1)” value in the assay with mouse FcγRII amounted to 1.15 fold. Also, in the assay with mouse FcγRIII, the “relative mFcγRIII-binding activity (mIgG1 = 1)” value turned out to be 1 fold.

B4: H237-MB525/MRAL-k0 (antibody, mouse IgG1, kappa)
heavy: QVQLQESGPGLVKPSETLSLTCAVSGHSISHDHAWSWVRQPPGEGLEWIGFISYSGITNYNPSLQGRVTISRDNSKNTLYLQMNSLRAEDTAVYYCARSLARTTAMDYWGEGTLVTVSSAKTTPPSVYPLAPGSAAQTNSMVTLGCLVKGYFPEPVTVTWNSGSLSSGVHTFPAVLQSDLYTLSSSVTVPSSTWPSETVTCNVAHPASSTKVDKKIVPRDCGCKPCICQPNEVEWVFIFPPKPKDVLTITLTPKVTCVVVDISKDDPEVQFSWFVDDVEVHTAQTQPREEQFNSTFRSVSELPIMHQDWLNGKEFKCRVNSAAFPAPIEKTISKTKGRPKAPQVYTIPPPKEQMAKDKVSLTCMITDFFPEDITVEWQWNGQPAENYKNTQPIMDTDGSYFVYSKLNVQKSNWEAGNTFTCSVLHEGLHNHHTEKSLSHSPGK
light: not shown
notes: copies: 2 + 2
In the case of B4, the “relative mFcγRII-binding activity (mIgG1 = 1)” value in assay [1] was 2.8. For the same molecule, in assay [2], the “relative mFcγRIII-binding activity (mIgG1 = 1)” value was 0.3.

B5: MB003 (antibody, mouse IgG1, kappa)
heavy: QVQLQESGPGLVKPSETLSLTCAVSGHSISHDHAWSWVRQPPGEGLEWIGFISYSGITNYNPSLQGRVTISRDNSKNTLYLQMNSLRAEDTAVYYCARSLARTTAMDYWGEGTLVTVSSAKTTPPSVYPLAPGSAAQTNSMVTLGCLVKGYFPEPVTVTWNSGSLSSGVHTFPAVLQSDLYTLSSSVTVPSSTWPSETVTCNVAHPASSTKVDKKIVPRDCGCKPCICEVPEVSSVFIFPPKPKDVLTITLTPKVTCVVVDISKDDPEVQFSWFVDDVEVHTAQTQPREEQFNSTFRSVSELPIMHQDWLNGKEFKCRVNSAAFPAPIEKTISKTKGRPKAPQVYTIPPPKEQMAKDKVSLTCMITDFFPEDITVEWQWNGQPAENYKNTQPIMDTDGSYFVYSKLNVQKSNWEAGNTFTCSVLHEGLHNHHTEKSLSHSPGK
light: not shown
notes: copies: 2 + 2
As to B5, the “relative mFcγRII-binding activity (mIgG1 = 1)” value with mouse FcγRII stood at 5.06 fold. The “relative mFcγRIII-binding activity (mIgG1 = 1)” value with mouse FcγRIII was 1.51 fold.

B6: H237-MB521/MRAL-k0 (antibody, mouse IgG1, kappa)
heavy: QVQLQESGPGLVKPSETLSLTCAVSGHSISHDHAWSWVRQPPGEGLEWIGFISYSGITNYNPSLQGRVTISRDNSKNTLYLQMNSLRAEDTAVYYCARSLARTTAMDYWGEGTLVTVSSAKTTPPSVYPLAPGSAAQTNSMVTLGCLVKGYFPEPVTVTWNSGSLSSGVHTFPAVLQSDLYTLSSSVTVPSSTWPSETVTCNVAHPASSTKVDKKIVPRDCGCKPCICEVYEVEWVFIFPPKPKDVLTITLTPKVTCVVVDISKDDPEVQFSWFVDDVEVHTAQTQPREEQFNSTFRSVSELPIMHQDWLNGKEFKCRVNSAAFPAPIEKTISKTKGRPKAPQVYTIPPPKEQMAKDKVSLTCMITDFFPEDITVEWQWNGQPAENYKNTQPIMDTDGSYFVYSKLNVQKSNWEAGNTFTCSVLHEGLHNHHTEKSLSHSPGK
light: not shown
notes: copies: 2 + 2
For B6, in assay [1], the “relative mFcγRII-binding activity (mIgG1 = 1)” value came to 1.6. In addition, the “relative mFcγRIII-binding activity (mIgG1 = 1)” value in assay [2] amounted to 0.7.

B7: MB013 (antibody, mouse IgG1, kappa)
heavy: QVQLQESGPGLVKPSETLSLTCAVSGHSISHDHAWSWVRQPPGEGLEWIGFISYSGITNYNPSLQGRVTISRDNSKNTLYLQMNSLRAEDTAVYYCARSLARTTAMDYWGEGTLVTVSSAKTTPPSVYPLAPGSAAQTNSMVTLGCLVKGYFPEPVTVTWNSGSLSSGVHTFPAVLQSDLYTLSSSVTVPSSTWPSETVTCNVAHPASSTKVDKKIVPRDCGCKPCICQVPEVSSVFIFPPKPKDVLTITLTPKVTCVVVDISKDDPEVQFSWFVDDVEVHTAQTQPREEQFNSTFRSVSELPIMHQDWLNGKEFKCRVNSAAFPAPIEKTISKTKGRPKAPQVYTIPPPKEQMAKDKVSLTCMITDFFPEDITVEWQWNGQPAENYKNTQPIMDTDGSYFVYSKLNVQKSNWEAGNTFTCSVLHEGLHNHHTEKSLSHSPGK
light: not shown
notes: copies: 2 + 2
Regarding B7, the “relative mFcγRII-binding activity (mIgG1 = 1)” value in the assay with mouse FcγRII was found to be 1.2 fold. For the same molecule, the “relative mFcγRIII-binding activity (mIgG1 = 1)” value in the assay with mouse FcγRIII is 1.07 fold.

B8: H237-MB522/MRAL-k0 (antibody, mouse IgG1, kappa)
heavy: QVQLQESGPGLVKPSETLSLTCAVSGHSISHDHAWSWVRQPPGEGLEWIGFISYSGITNYNPSLQGRVTISRDNSKNTLYLQMNSLRAEDTAVYYCARSLARTTAMDYWGEGTLVTVSSAKTTPPSVYPLAPGSAAQTNSMVTLGCLVKGYFPEPVTVTWNSGSLSSGVHTFPAVLQSDLYTLSSSVTVPSSTWPSETVTCNVAHPASSTKVDKKIVPRDCGCKPCICEPAEVEWVFIFPPKPKDVLTITLTPKVTCVVVDISKDDPEVQFSWFVDDVEVHTAQTQPREEQFNSTFRSVSELPIMHQDWLNGKEFKCRVNSAAFPAPIEKTISKTKGRPKAPQVYTIPPPKEQMAKDKVSLTCMITDFFPEDITVEWQWNGQPAENYKNTQPIMDTDGSYFVYSKLNVQKSNWEAGNTFTCSVLHEGLHNHHTEKSLSHSPGK
light: not shown
notes: copies: 2 + 2
Regarding B8, the “relative mFcγRII-binding activity (mIgG1 = 1)” value in assay [1] was 1.5. For the same molecule, in assay [2], the “relative mFcγRIII-binding activity (mIgG1 = 1)” value amounted to 0.1.

B9: MB019 (antibody, mouse IgG1, kappa)
heavy: QVQLQESGPGLVKPSETLSLTCAVSGHSISHDHAWSWVRQPPGEGLEWIGFISYSGITNYNPSLQGRVTISRDNSKNTLYLQMNSLRAEDTAVYYCARSLARTTAMDYWGEGTLVTVSSAKTTPPSVYPLAPGSAAQTNSMVTLGCLVKGYFPEPVTVTWNSGSLSSGVHTFPAVLQSDLYTLSSSVTVPSSTWPSETVTCNVAHPASSTKVDKKIVPRDCGCKPCICTAPEVSSVFIFPPKPKDVLTITLTPKVTCVVVDISKDDPEVQFSWFVDDVEVHTAQTQPREEQFNSTFRSVSELPIMHQDWLNGKEFKCRVNSAAFPAPIEKTISKTKGRPKAPQVYTIPPPKEQMAKDKVSLTCMITDFFPEDITVEWQWNGQPAENYKNTQPIMDTDGSYFVYSKLNVQKSNWEAGNTFTCSVLHEGLHNHHTEKSLSHSPGK
light: not shown
notes: copies: 2 + 2
In the case of B9, the “relative mFcγRII-binding activity (mIgG1 = 1)” value in the assay with mouse FcγRII is 2.7 fold. Also, the “relative mFcγRIII-binding activity (mIgG1 = 1)” value with mouse FcγRIII was 1.44 fold.
